The source of these data is patent US20220194999A1 (published 2022).

Assay in all cases: multimer staining
The target of test [1] is T1, TP53 C141Y peptide on HLA-A*02:01 (human).
T1 peptide: KTYPVQLWV

Test [2] addresses T2, TP53 C141Y, mimic peptide TP53_C141Y8 peptide on HLA-A*02:01 (human).
T2 peptide: KMYPVQLWL

Test [3] deals with T3, PIK3CA G118D, mimic peptide PIK3CA_G118D5 peptide on HLA-A*02:01 (human).
T3 peptide: ILNREIDFV

The target of test [4] is T4, PIK3CA G118D peptide on HLA-A*02:01 (human).
T4 peptide: ILNREIDFA

B1: TCR of SEQ ID NOs 210 and 114 (TCR)
alpha TRAV8-4*01 TRAJ8*01 CDR3: CAVSDEDTGFQKLVF
beta TRBV12-3*01 TRBJ1-2*01 CDR3: CASSFSTCSANYGYTF
As to B1, the binding result in test [1] and in test [2] was “recognises” each time.

B2: TCR of SEQ ID NOs 120 and 114 (TCR)
alpha TRAV12-2*01 TRAJ15*01 CDR3: CAGLIGTALIF
beta TRBV12-3*01 TRBJ1-2*01 CDR3: CASSFSTCSANYGYTF
For the molecule B2, the binding result in test [3] and in test [4] was “recognises” in each case.
